Measured values: US20260191907A1 (INSTITUT CURIE, published 2026)
Values belong to the binder of their own block, whether it stands above or below them.

Key:
[1] = target: T1, FGFR1 expressed on Rh4-FR4ko cells (UniProt P11362 22-822, limits assumed); test: flow cytometry on Rh4-FR4ko cells, which express FGFR1 and FGFR2
T1 construct: whole, on cells; also called FGFR1 on Rh4 cells
Method: The cells were incubated for 1 h with nanobodies at 10 μM (A8, B1, B5, F8, mCh) followed by stimulation of FGFR4 with 50 nM FGF19 for 10 min. Control cells (C) were either not stimulated or stimulated with FGF19 in absence of the nanobodies. The cell lysates were analysed by western blot with anti phospho ERK1/2 antibody. Total Erk1/2 levels are shown as loading control.
Binding validation of selected phages, recombinant nanobodies and decorated liposomes was performed on Rh4-FR4 wt and Rh4-FR4ko cells. Specificity of selected phage clones binding to FGFR4 was determined by flow cytometry in 96-well plates (Becton Dickinson). Cell surface staining of Rh4-FR4 wt or Rh4-FR4ko cells was performed on ice in PBS supplemented with 1% FBS. 80 μL phages+20 μL PBS/1% milk were incubated on 1×10⁵ cells for 1 h on ice. […] Samples were analyzed after two washes by flow cytometry on a MACSQuant® cytometer (Miltenyi) and results were analyzed with FlowJo™ software (BD Biosciences, France). Phages displaying anti-mCherry nanobodies were used as negative control²⁴ and as positive control we used an anti-FGFR4 antibody (BT53, kindly provided by J. Khan lab, NCI, Bethesda, MD). For binding test of recombinant nanobodies, cells were detached with Accutase® (Stemcell Technologies) and washed with PBS. All following steps were performed on ice: 4×10⁵ cells were incubated with nanobody concentrations of 30 μg/ml for 1 h, washed once with PBS and incubated for an additional 30 min with anti His-tag FITC labeled antibody (LS-C57341, LSBioscience, diluted 1:10). The cells were washed once more with PBS and analyzed. Targeting liposomes were added at 0.5 mM final lipid concentration to cells in 96-well plates and incubated for 2 h at 37° C. and 5% CO₂. The cells were washed twice with PBS and detached with Accutase®.
Validation of the binding of recombinant nanobodies to cell-surface expressed FGFR4 was performed with Rh4-FR4 wt and Rh4-FR4ko cells by flow cytometry.

[2] = target: T2, Recombinant FGFR4 (G&P Biosciences) (human, UniProt P22455 22-369); test: SPR (BIAcore T200), single cycle kinetics, FGFR4 amine-immobilised, nanobody as analyte, heterogeneous ligand model, component 2 (kon2)
T2 construct: Bought protein; the SPR method says only 'Recombinant; also called rFGFR4; extracellular FGFR4
T2 sequence: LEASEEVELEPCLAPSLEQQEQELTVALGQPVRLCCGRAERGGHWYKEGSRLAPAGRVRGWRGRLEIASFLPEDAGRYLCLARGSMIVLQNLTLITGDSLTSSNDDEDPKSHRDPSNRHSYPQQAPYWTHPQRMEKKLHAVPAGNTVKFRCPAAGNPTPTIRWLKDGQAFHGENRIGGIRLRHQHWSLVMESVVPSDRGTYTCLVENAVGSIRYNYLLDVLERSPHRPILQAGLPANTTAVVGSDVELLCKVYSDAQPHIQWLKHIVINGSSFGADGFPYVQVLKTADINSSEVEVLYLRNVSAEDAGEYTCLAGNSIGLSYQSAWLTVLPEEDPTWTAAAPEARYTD
Method: (§1) FIG. 3: Affinity determination of nanobodies to recombinant protein via surface plasmon resonance spectroscopy. Single cycle kinetics analysis was performed on immobilized FGFR4 through covalent amine binding on the dextran based sensor chip. The analytes A8, B1, B5, F8 and mCh were injected in 5 different concentrations followed by a dissociation phase. A final dissociation step was added after the last injection step to determine Koff rates for the KD calculations. The black curves represent the measured data and red curves show the fit analysis (heterogeneous ligand model) performed with the BIAevaluation software.
(§2) Single cycle kinetics analysis was performed with the BIAcore® T200 instrument (GE Healthcare) on CMD200M sensor chips (XanTec bioanalytics GmbH) activated with a mixture of 300 mM NHS (N-hydroxysuccinimide) and 50 mM EDC (N-ethyl-N′-(dimethylaminopropyl) carbodiimide). Recombinant FGFR1, FGFR2, FGFR3 and FGFR4 (G&P Biosciences) were immobilized on the activated biosensors (800 to 12′000 RU; 1 RU=1 pg/mm²) followed by a blocking step with 1M ethanolamine. One flow channel per chip was used as a reference to provide background corrections. The nanobodies were injected at 5 different concentrations followed by a dissociation phase. Koff-rates were determined from a final dissociation step after the last injection. The measurements with FGFR4 were performed for each nanobody on freshly immobilized protein due to strong binding and incomplete dissociation from the surface. Immobilization flow rate was 5 μl/min and binding studies were performed at 30 μl/min. Binding parameters were determined with the heterogeneous ligand model fit of the BIAevaluation software. The black curves represent the measured data and red curves show the performed fit analysis.
To determine the binding affinity of the nanobodies to FGFR4, we performed surface plasmon resonance (SPR) spectroscopy with recombinant FGFR4. As already mentioned above, FGFR1 and FGFR2 are expressed on Rh4-FR4ko cells and flow cytometry analysis indicated no binding of the nanobodies to the cells. To further confirm FGFR4-specificity, we included also affinity measurements with recombinant FGFR1, FGFR2 and FGFR3. Nanobodies A8, B1, B5, F8, and mCh were injected in five different concentrations on a FGFR coated chip.

[3] = target: T2, Recombinant FGFR4 (G&P Biosciences); test: SPR (BIAcore T200), single cycle kinetics, FGFR4 amine-immobilised, nanobody as analyte, heterogeneous ligand model, component 1 (koff1)
Method: as §1, §2
To determine the binding affinity of the nanobodies to FGFR4, we performed surface plasmon resonance (SPR) spectroscopy with recombinant FGFR4. As already mentioned above, FGFR1 and FGFR2 are expressed on Rh4-FR4ko cells and flow cytometry analysis indicated no binding of the nanobodies to the cells. […]

binding result [1]: no binding (tested: 30 µg/ml) | kon [2]: 173000 M⁻¹ s⁻¹ | koff [3]: 0.000566 s⁻¹
B3: B5 nanobody (anti-FGFR4 sdAb, NaLi-H1 library) (VHH)
VHH: EVQLQASGGGFVQPGGSLRLSCAASGRTSWLTTMGWFRQAPGKEREFVSAISSFSSKQGYYADSVKGRFTISRDNSKNTVYLQMNSLRAEDTATYYCAYASYPRHQGNGRWKDFVEYWGQGTQVTVSS
notes: Recombinant nanobody of about 17 kDa; also called B5 sdAb; not shown: C-terminal Myc/6xHis-tag and an additional cysteine

binding result [1]: no binding (tested: 30 µg/ml) | kon [2]: 1.35e+06 M⁻¹ s⁻¹ | koff [3]: 1.04e-06 s⁻¹
B4: F8 nanobody (anti-FGFR4 sdAb, Gimli library) (VHH)
VHH: EVQLVESGGGLVQPGGSLRLSCAASGTGYALDDMGWVRQAPGKGLEWVSAISDDESMADYYADSVKGRFTISRDNSKNTVYLQMNSLRAEDTAVYYCASYKEYKYQSGHHYFAYRGQGTLVTVSS
notes: Recombinant nanobody of about 17 kDa; also called F8 sdAb; not shown: C-terminal Myc/6xHis-tag and an additional cysteine

Continued, binder first:

B1: A8 nanobody (anti-FGFR4 sdAb, NaLi-H1 library) (VHH)
VHH: EVQLQASGGGFVQPGGSLRLSCAASGRTYSRDTMGWFRQAPGKEREFVSAISSRHSHTTYYADSVKGRFTISRDNSKNTVYLQMNSLRAEDTATYYCAEWDVFDMHYALPPMWYWGQGTQVTVSS
notes: also called A8 sdAb; not shown: C-terminal Myc/6xHis-tag and an additional cysteine
binding result [1]: no binding (tested: 30 µg/ml) | kon [2]: 66700 M⁻¹ s⁻¹

B2: B1 nanobody (anti-FGFR4 sdAb, NaLi-H1 library) (VHH)
VHH: EVQLQASGGGFVQPGGSLRLSCAASGYTSRSSAMGWFRQAPGKEREFVSAISDLTGYPYYYADSVKGRFTISRDNSKNTVYLQMNSLRAEDTATYYCAAYQDDKWTYGSQHGKYWGQGTQVTVSS
notes: also called B1 sdAb; not shown: C-terminal Myc/6xHis-tag and an additional cysteine
binding result [1]: no binding (tested: 30 µg/ml) | kon [2]: 216000 M⁻¹ s⁻¹ | koff [3]: 1.18e-06 s⁻¹
